Laboratory results as given in patent US20210238289A1 (Biogen, published 2021).

B1: Chimeric HP1/2 (antibody, human IgG1, V domains shown)
VH: EVQLQQSGAELVKPGASVKLSCTASGFNIKDTYMHWVKQRPEQGLEWIGRIDPASGDTKYDPKFQVKATITADTSSNTAWLQLSSLTSEDTAVYYCADGMWVSTGYALDFWGQGTTVTVSS
VL: SIVMTQTPKFLLVSAGDRVTITCKASQSVTNDVAWYQQKPGQSPKLLIYYASNRYTGVPDRFTGSGYGTDFTFTISTVQAEDLAVYFCQQDYSSPYTFGGGTKLEIK
notes: also called chimerized HP1/2 antibody; chimeric mAb
B2: CN645 (hu5c8 IgG1 N297P, T299K) (antibody)
heavy: not shown
light: DIVLTQSPATLSVSPGERATISCRASQRVSSSTYSYMHWYQQKPGQPPKLLIKYASNLESGVPARFSGSGSGTDFTLTISSVEPEDFATYYCQHSWEIPPTFGGGTKLEIKRTVAAPSVFIFPPSDEQLKSGTASVVCLLNNFYPREAKVQWKVDNALQSGNSQESVTEQDSKDSTYSLSSTLTLSKADYEKHKVYACEVTHQGLSSPVTKSFNRGEC
B3: EAG2300 (hu5c8 IgG4 chimeric hinge + IgG1 CH3, glycosylated) (antibody)
heavy: QVQLVQSGAEVVKPGASVKLSCKASGYIFTSYYMYWVKQAPGQGLEWIGEINPSNGDTNFNEKFKSKATLTVDKSASTAYMELSSLRSEDTAVYYCTRSDGRNDMDSWGQGTLVTVSSASTKGPSVFPLAPCSRSTSESTAALGCLVKDYFPEPVTVSWNSGALTSGVHTFPAVLQSSGLYSLSSVVTVPSSSLGTKTYTCNVDHKPSNTKVDKRVESKYGPPCPPCPAPPVAGPSVFLFPPKPKDTLMISRTPEVTCVVVDVSQEDPEVQFNWYVDGVEVHNAKTKPREEQFNSTYRVVSVLTVLHQDWLNGKEYKCKVSNKGLPSSIEKTISKAKGQPREPQVYTLPPSRDELTKNQVSLTCLVKGFYPSDIAVEWESNGQPENNYKTTPPVLDSDGSFFLYSKLTVDKSRWQQGNVFSCSVMHEALHNHYTQKSLSLSPG
light: DIVLTQSPATLSVSPGERATISCRASQRVSSSTYSYMHWYQQKPGQPPKLLIKYASNLESGVPARFSGSGSGTDFTLTISSVEPEDFATYYCQHSWEIPPTFGGGTKLEIKRTVAAPSVFIFPPSDEQLKSGTASVVCLLNNFYPREAKVQWKVDNALQSGNSQESVTEQDSKDSTYSLSSTLTLSKADYEKHKVYACEVTHQGLSSPVTKSFNRGEC
modifications: N-terminal Q largely converted to pyroglutamic acid; N-linked G0F/G1F/G2F glycans (mass spectrometry)
notes: also called pEAG2300; copies: 2 + 2
B4: EAG2412 (hu5c8 S228P/N297Q, IgG4 CH1, IgG4 CH2, IgG1 CH3, aglycosylated) (antibody)
heavy: QVQLVQSGAEVVKPGASVKLSCKASGYIFTSYYMYWVKQAPGQGLEWIGEINPSNGDTNFNEKFKSKATLTVDKSASTAYMELSSLRSEDTAVYYCTRSDGRNDMDSWGQGTLVTVSSASTKGPSVFPLAPCSRSTSESTAALGCLVKDYFPEPVTVSWNSGALTSGVHTFPAVLQSSGLYSLSSVVTVPSSSLGTKTYTCNVDHKPSNTKVDKRVESKYGPPCPPCPAPEFLGGPSVFLFPPKPKDTLMISRTPEVTCVVVDVSQEDPEVQFNWYVDGVEVHNAKTKPREEQFQSTYRVVSVLTVLHQDWLNGKEYKCKVSNKGLPSSIEKTISKAKGQPREPQVYTLPPSRDELTKNQVSLTCLVKGFYPSDIAVEWESNGQPENNYKTTPPVLDSDGSFFLYSKLTVDKSRWQQGNVFSCSVMHEALHNHYTQKSLSLSP
light: DIVLTQSPATLSVSPGERATISCRASQRVSSSTYSYMHWYQQKPGQPPKLLIKYASNLESGVPARFSGSGSGTDFTLTISSVEPEDFATYYCQHSWEIPPTFGGGTKLEIKRTVAAPSVFIFPPSDEQLKSGTASVVCLLNNFYPREAKVQWKVDNALQSGNSQESVTEQDSKDSTYSLSSTLTLSKADYEKHKVYACEVTHQGLSSPVTKSFNRGEC
notes: also called N297Q IgG4-CH2/IgG1-CH3; copies: 2 + 2
B5: CN646 (hu5c8 IgG1 N297S, T299K) (antibody)
heavy: not shown
light: DIVLTQSPATLSVSPGERATISCRASQRVSSSTYSYMHWYQQKPGQPPKLLIKYASNLESGVPARFSGSGSGTDFTLTISSVEPEDFATYYCQHSWEIPPTFGGGTKLEIKRTVAAPSVFIFPPSDEQLKSGTASVVCLLNNFYPREAKVQWKVDNALQSGNSQESVTEQDSKDSTYSLSSTLTLSKADYEKHKVYACEVTHQGLSSPVTKSFNRGEC
B6: EAG2390 (hu5c8 IgG1 T299P) (antibody)
heavy: not shown
light: DIVLTQSPATLSVSPGERATISCRASQRVSSSTYSYMHWYQQKPGQPPKLLIKYASNLESGVPARFSGSGSGTDFTLTISSVEPEDFATYYCQHSWEIPPTFGGGTKLEIKRTVAAPSVFIFPPSDEQLKSGTASVVCLLNNFYPREAKVQWKVDNALQSGNSQESVTEQDSKDSTYSLSSTLTLSKADYEKHKVYACEVTHQGLSSPVTKSFNRGEC
B7: EC300 (hu5c8 IgG4.P S228P, T307P, glycosylated) (antibody)
heavy: not shown
light: DIVLTQSPATLSVSPGERATISCRASQRVSSSTYSYMHWYQQKPGQPPKLLIKYASNLESGVPARFSGSGSGTDFTLTISSVEPEDFATYYCQHSWEIPPTFGGGTKLEIKRTVAAPSVFIFPPSDEQLKSGTASVVCLLNNFYPREAKVQWKVDNALQSGNSQESVTEQDSKDSTYSLSSTLTLSKADYEKHKVYACEVTHQGLSSPVTKSFNRGEC
notes: copies: 2 + 2
B8: CN647 (hu5c8 IgG1 N297D, T299K) (antibody)
heavy: not shown
light: DIVLTQSPATLSVSPGERATISCRASQRVSSSTYSYMHWYQQKPGQPPKLLIKYASNLESGVPARFSGSGSGTDFTLTISSVEPEDFATYYCQHSWEIPPTFGGGTKLEIKRTVAAPSVFIFPPSDEQLKSGTASVVCLLNNFYPREAKVQWKVDNALQSGNSQESVTEQDSKDSTYSLSSTLTLSKADYEKHKVYACEVTHQGLSSPVTKSFNRGEC
B9: H1L1 (antibody, V domains shown)
VH: EVQLVQSGAEVKKPGATVKISCKASGFNIKDTYMHWVQQAPGKGLEWMGRIDPASGDTKYDPKFQVRVTITADTSTDTAYMELSSLRSEDTAVYYCADGMWVSTGYALDFWGQGTLVTVSS
VL: SIVMTQSPDSLAVSLGERATINCKASQSVTNDVAWYQQKPGQPPKLLIYYASNRYTGVPDRFSGSGSGTDFTLTISSLQAEDVAVYFCQQDYSSPYTFGQGTKVEIK
notes: also called Design H1 / Design L1
B10: H1L3 (antibody, V domains shown)
VH: EVQLVQSGAEVKKPGATVKISCKASGFNIKDTYMHWVQQAPGKGLEWMGRIDPASGDTKYDPKFQVRVTITADTSTDTAYMELSSLRSEDTAVYYCADGMWVSTGYALDFWGQGTLVTVSS
VL: SIVMTQSPDSLAVSLGERATINCKASQSVTNDVAWYQQKPGQPPKLLIYYASNRYTGVPDRFSGSGYGTDFTFTISSLQAEDVATYFCQQDYSSPYTFGQGTKVEIK
notes: also called Design H1 / Design L3
B11: H1L0 (antibody, V domains shown)
VH: EVQLVQSGAEVKKPGATVKISCKASGFNIKDTYMHWVQQAPGKGLEWMGRIDPASGDTKYDPKFQVRVTITADTSTDTAYMELSSLRSEDTAVYYCADGMWVSTGYALDFWGQGTLVTVSS
VL: DIVMTQSPDSLAVSLGERATINCKASQSVTNDVAWYQQKPGQPPKLLIYYASNRYTGVPDRFSGSGSGTDFTLTISSLQAEDVAVYYCQQDYSSPYTFGQGTKVEIK
notes: also called Design H1 / Design L0
B12: H1L2 (antibody, V domains shown)
VH: EVQLVQSGAEVKKPGATVKISCKASGFNIKDTYMHWVQQAPGKGLEWMGRIDPASGDTKYDPKFQVRVTITADTSTDTAYMELSSLRSEDTAVYYCADGMWVSTGYALDFWGQGTLVTVSS
VL: SIVMTQSPDSLAVSLGERATINCKASQSVTNDVAWYQQKPGQPPKLLIYYASNRYTGVPDRFSGSGYGTDFTLTISSLQAEDVAVYFCQQDYSSPYTFGQGTKVEIK
notes: also called Design H1 / Design L2

Legend:
[1] = biological target: T1, α4β1 (VLA-4) as used in the competition ELISAs (UniProt P13612 34-970; P05556 21-728); assay: competition ELISA; integrin preincubated with test mAb, then murine HP1/2 as competing reagent
[2] = biological target: T1, α4β1 (VLA-4) as used in the competition …; assay: competition ELISA; mixture of mouse HP1/2 with test mAb binding to integrin
CD64 (FcγRI) [3] = biological target: T2, CD64 (FcγRI) (UniProt P12314 16-288, limits assumed); assay: solution competition SPR (Biacore)
Method: (§1) Binding to Fcγ receptors was analyzed using solution affinity surface plasmon resonance (ref Day E S, Cachero T G, Qian F, Sun Y, Wen D, Pelletier M, Hsu Y M, Whitty A. Selectivity of BAFF/BLyS and APRIL for binding to the TNF family receptors BAFFR/BR3 and BCMA. Biochemistry. 2005 Feb. 15; 44(6):1919-31.) The method utilizes conditions of so-called “mass-transport-limited” binding, in which the initial rate of ligand binding (protein binding to the senor chip) is proportional to the concentration of ligand in solution (ref BIApplications Handbook (1994) Chapter 6: Concentration measurement, pp 6-1-6-10, Pharmacia Biosensor AB). Under these conditions, binding of the soluble analyte (protein flowing over chip surface) to the immobilized protein on the chip is fast compared to the diffusion of the analyte into the dextran matrix on the chip surface. Therefore, the diffusion properties of the analyte and the concentration of analyte in solution flowing over the chip surface determine the rate at which analyte binds to the chip. In this experiment, the concentration of free Fc receptor in solution is determined by the initial rate of binding to a CM5 Biacore chip containing an immobilized IgG1 MAb. Into these Fc receptor solutions were titrated the stability engineered constructs (see Table 10.1 below). […] Initial binding rates were obtained from raw sensorgram data (FIG. 14). […] The results are shown in Table 10.1 and reported as the average of two titrations.

human C1q = biological target: T3, human C1q (human, UniProt P02745 23-245; P02746 28-253; P02747 29-245); assay: C1q ELISA
T3 construct: Bought protein; also called complement factor C1q; Sigma human C1q (C0660)
Method: The C1q binding assay was be performed by coating 96 well Maxisorb ELISA plates (Nalge-Nunc Rochester, N.Y., USA) with 50 μl recombinant soluble human CD40 ligand at 10 ug/ml overnight at 4° C. in PBS. The wells were aspirated and washed three times with wash buffer (PBS, 0.05% Tween 20) and blocked for 1 hour with 200 µl/well of block/diluent buffer (0.1 M Na2HP04, pH 7.0, 1 M NaCl, 0.05% Tween 20, 1% gelatin). The antibodies were diluted in block/diluent buffer with 3-fold dilutions and incubated for 2 hours at room temperature.
After aspirating and washing as above, 50 pll/well of sheep anti C1q (Serotec AHP033), diluted 3, 560-fold in block/diluent buffer, were added. After incubation for 1 h at room temperature, the wells were aspirated and washed as above. 50 pll/well of donkey anti-sheep IgG HRP conjugate (Jackson ImmunoResearch 713-035-147) diluted to 1:10,000 in block/diluent were then added, and the wells incubated for 1 h at room temperature.
After aspirating and washing as above, 100 all TMB substrate (420 plM TMB, 0.004% H2O2 in 0.1 M sodium acetate/citric acid buffer, pH 4.9) were added and incubated for 2 min before the reaction was stopped with 100 ul 2 N sulfuric acid. The absorbance was read at 450 nm with a Softmax PRO instrument, and Softmax software was used to determine the relative binding affinity (C value) with a 4-parameter fit.

CD64 (FcγRI) [4] = biological target: T2, CD64 (FcγRI); assay: solution competition SPR (Biacore); construct titrated into receptor, free receptor read on immobilized IgG1 MAb
Method: as §1

CD16 (FcγRIIIa V158) = biological target: T4, CD16 (FcγRIIIa V158) (UniProt P08637 17-208); assay: as above
T4 construct: V158 allotype as printed
Method: as §1

Row | Binder | IC50 [1] [µM] | IC50 [2] [µM] | IC50 (CD64 (FcγRI) [3]) [µM] | binding result (human C1q) | also measured
1 | B1 | 0.00106 | 0.00164 |  |  | 
2 | B2 |  |  | 4390 | no binding | 
3 | B3 |  |  |  |  | IC50 (CD64 (FcγRI) [4]): 3020 µM
4 | B4 |  |  |  | no binding | 
5 | B5 |  |  | 3160 | no binding | 
6 | B6 |  |  | 392 | no binding | 
7 | B7 |  |  |  |  | IC50 (CD64 (FcγRI) [4]): 11.2 µM; IC50 (CD16 (FcγRIIIa V158)): 564 µM
8 | B8 |  |  | 4480 | no binding | 
9 | B9 | 0.00167 | 0.00455 |  |  | 
10 | B10 | 0.00049 |  |  |  | 
11 | B11 | 0.00187 | 0.00446 |  |  | 
12 | B12 | 0.0009 | 0.00134 |  |  | 
